{"source": "patent US5763571", "about": "“Inhibiting protein interactions” (The General Hospital Corporation, dated 1998)", "target": "GST-Raf(1-257) (human)", "experiment": "peptide competition of Ras-GTP / GST-Raf co-precipitation", "note": "No end group written: not given here."}
{"binder": "EDSYRKQVVIDGETC (not fully specified (N-terminus, C-terminus))", "note": "[Ras 37-51 peptide]", "values": [{"measurement": "IC50", "result": 100, "unit": "µM"}]}
